In article PMC4810480 one finds Kd, koff and kon data, which are given here for 1 substance.

For this assay, the target named is human CD26 (residues 39 to 766) (human) (UniProt P27487). The assay is described as follows: SPR.
UniProt P27487, sequence (P27487 39-766): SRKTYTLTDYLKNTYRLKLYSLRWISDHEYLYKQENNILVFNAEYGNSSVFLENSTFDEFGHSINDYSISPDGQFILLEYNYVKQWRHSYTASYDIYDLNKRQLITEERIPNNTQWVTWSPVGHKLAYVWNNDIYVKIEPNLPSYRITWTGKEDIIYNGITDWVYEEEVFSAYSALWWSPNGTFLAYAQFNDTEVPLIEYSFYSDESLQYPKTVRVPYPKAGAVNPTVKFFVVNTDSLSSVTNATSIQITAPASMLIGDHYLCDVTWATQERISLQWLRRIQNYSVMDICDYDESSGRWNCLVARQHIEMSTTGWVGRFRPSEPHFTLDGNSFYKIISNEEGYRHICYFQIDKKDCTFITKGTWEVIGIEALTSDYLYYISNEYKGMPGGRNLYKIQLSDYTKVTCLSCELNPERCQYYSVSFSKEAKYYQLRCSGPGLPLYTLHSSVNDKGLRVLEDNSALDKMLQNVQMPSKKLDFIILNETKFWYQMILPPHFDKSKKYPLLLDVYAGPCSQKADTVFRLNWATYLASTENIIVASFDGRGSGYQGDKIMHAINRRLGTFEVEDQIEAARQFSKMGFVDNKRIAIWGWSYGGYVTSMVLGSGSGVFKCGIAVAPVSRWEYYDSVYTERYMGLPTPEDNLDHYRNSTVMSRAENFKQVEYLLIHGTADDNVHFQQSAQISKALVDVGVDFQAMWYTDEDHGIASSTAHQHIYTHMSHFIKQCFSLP

For orientation: Kd means the constant that tells how readily two partners part at equilibrium. High values mean weaker binding, low ones tighter binding. The koff is a measure of how fast the partners let go of each other. Broadly, the kon is a measure of how fast the partners come together. With “MERS-CoV spike receptor-binding domain (RBD), wild type (from UniProt K9N5Q8 367-606) (domain or fragment)”, the Kd was 64.5 nM, the koff amounted to 0.000936 s⁻¹ and the kon amounted to 14500 M⁻¹ s⁻¹.
